Results as given in US20240050583A1 (HARBOUR BIOMED SHANGHAI, published 2024).

T1: human BCMA (human, UniProt Q02223 1-184)
T1 construct: whole, on cells; also called hBCMA; tumor necrosis factor receptor superfamily member 17
T1 sequence (looked up): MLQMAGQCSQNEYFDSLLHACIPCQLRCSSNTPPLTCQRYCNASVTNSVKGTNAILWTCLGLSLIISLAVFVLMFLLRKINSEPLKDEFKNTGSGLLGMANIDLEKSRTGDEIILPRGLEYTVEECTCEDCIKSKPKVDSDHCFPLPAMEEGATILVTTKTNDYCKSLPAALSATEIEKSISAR


Target: T1, human BCMA
Assay: flow cytometry (FACS) on NCI-H929 cells

Row | Binder | binding result
1 | HCAb PR004433 (antibody, human IgG1, V domains shown, also called PR001046_R2_4G10; anti-BCMA HCAb antibody PR004433) VH: EVQLVETGGGLIQPGGSLRLSCAASGFTVSDSYMTWVRQAPGKGLEWVSVIFSGGRTYYSDSVKGRFTISRDNAKNTLYLQMNSLRAEDTALYYCARRNYDDTRGTDVFDIWGQGTMVTVSS | binds
2 | HCAb PR006468 (antibody, V domains shown) VH: EVQLVETGGGLIQPGGSLRLSCAASGFTVSDSYMTWVRQAPGKGLEWVSVIFSGGRTYYSDSVKGRFTISRDNAKNTLYLQMNSLRAEDTALYYCARRNYDDTRGTDVFDIWGQGTMVTVSS | binds
3 | PR006042 (antibody, V domains shown, also called PR004433 variant molecule; Hinge6_18) VH: EVQLVETGGGLIQPGGSLRLSCAASGFTVSDSYMTWVRQAPGKGLEWVSVIFSGGRTYYSDSVKGRFTISRDNAKNTLYLQMNSLRAEDTALYYCARRNYDDTRGTDVFDIWGQGTMVTVSS | binds
4 | PR006310 (antibody, V domains shown, also called PR004433 variant molecule; Hinge7_2) VH: EVQLVETGGGLIQPGGSLRLSCAASGFTVSDSYMTWVRQAPGKGLEWVSVIFSGGRTYYSDSVKGRFTISRDNAKNTLYLQMNSLRAEDTALYYCARRNYDDTRGTDVFDIWGQGTMVTVSS | binds
5 | PR006036 (antibody, V domains shown, also called PR004433 variant molecule; Hinge4_15) VH: EVQLVETGGGLIQPGGSLRLSCAASGFTVSDSYMTWVRQAPGKGLEWVSVIFSGGRTYYSDSVKGRFTISRDNAKNTLYLQMNSLRAEDTALYYCARRNYDDTRGTDVFDIWGQGTMVTVSS | binds
6 | PR006316 (antibody, V domains shown, also called PR004433 variant molecule; Hinge9_5) VH: EVQLVETGGGLIQPGGSLRLSCAASGFTVSDSYMTWVRQAPGKGLEWVSVIFSGGRTYYSDSVKGRFTISRDNAKNTLYLQMNSLRAEDTALYYCARRNYDDTRGTDVFDIWGQGTMVTVSS | binds
7 | PR006319 (antibody, V domains shown, also called PR004433 variant molecule; Hinge10_3) VH: EVQLVETGGGLIQPGGSLRLSCAASGFTVSDSYMTWVRQAPGKGLEWVSVIFSGGRTYYSDSVKGRFTISRDNAKNTLYLQMNSLRAEDTALYYCARRNYDDTRGTDVFDIWGQGTMVTVSS | binds
8 | PR006031 (antibody, V domains shown, also called PR004433 variant molecule; Hinge3_5) VH: EVQLVETGGGLIQPGGSLRLSCAASGFTVSDSYMTWVRQAPGKGLEWVSVIFSGGRTYYSDSVKGRFTISRDNAKNTLYLQMNSLRAEDTALYYCARRNYDDTRGTDVFDIWGQGTMVTVSS | binds
9 | PR006314 (antibody, V domains shown, also called PR004433 variant molecule; Hinge8_18) VH: EVQLVETGGGLIQPGGSLRLSCAASGFTVSDSYMTWVRQAPGKGLEWVSVIFSGGRTYYSDSVKGRFTISRDNAKNTLYLQMNSLRAEDTALYYCARRNYDDTRGTDVFDIWGQGTMVTVSS | binds
10 | PR006321 (antibody, V domains shown, also called PR004433 variant molecule; Hinge10_7) VH: EVQLVETGGGLIQPGGSLRLSCAASGFTVSDSYMTWVRQAPGKGLEWVSVIFSGGRTYYSDSVKGRFTISRDNAKNTLYLQMNSLRAEDTALYYCARRNYDDTRGTDVFDIWGQGTMVTVSS | binds
11 | PR006033 (antibody, V domains shown, also called PR004433 variant molecule; Hinge3_18) VH: EVQLVETGGGLIQPGGSLRLSCAASGFTVSDSYMTWVRQAPGKGLEWVSVIFSGGRTYYSDSVKGRFTISRDNAKNTLYLQMNSLRAEDTALYYCARRNYDDTRGTDVFDIWGQGTMVTVSS | binds
12 | PR006032 (antibody, V domains shown, also called PR004433 variant molecule; Hinge3_6) VH: EVQLVETGGGLIQPGGSLRLSCAASGFTVSDSYMTWVRQAPGKGLEWVSVIFSGGRTYYSDSVKGRFTISRDNAKNTLYLQMNSLRAEDTALYYCARRNYDDTRGTDVFDIWGQGTMVTVSS | binds
13 | PR006312 (antibody, V domains shown, also called PR004433 variant molecule; Hinge7_19) VH: EVQLVETGGGLIQPGGSLRLSCAASGFTVSDSYMTWVRQAPGKGLEWVSVIFSGGRTYYSDSVKGRFTISRDNAKNTLYLQMNSLRAEDTALYYCARRNYDDTRGTDVFDIWGQGTMVTVSS | binds
14 | PR006037 (antibody, V domains shown, also called PR004433 variant molecule; Hinge5_2) VH: EVQLVETGGGLIQPGGSLRLSCAASGFTVSDSYMTWVRQAPGKGLEWVSVIFSGGRTYYSDSVKGRFTISRDNAKNTLYLQMNSLRAEDTALYYCARRNYDDTRGTDVFDIWGQGTMVTVSS | binds
15 | PR006041 (antibody, V domains shown, also called PR004433 variant molecule; Hinge6_15) VH: EVQLVETGGGLIQPGGSLRLSCAASGFTVSDSYMTWVRQAPGKGLEWVSVIFSGGRTYYSDSVKGRFTISRDNAKNTLYLQMNSLRAEDTALYYCARRNYDDTRGTDVFDIWGQGTMVTVSS | binds

The remaining lines, values ahead:

Row | binding result | Binder
16 | binds | PR005744-ADC (bispecific antibody, human IgG1, kappa, mc-vc-PAB-MMAE coupled to Cys-220 (Eu numbering) of the linker peptide (99.07% of the site coupled), Coupling product of PR005744 with mc-vc-PAB-MMAE; also called coupling product PR005744-ADC) chain 1: QVQLVESGGGVVQPGRSLRLSCAATGFTFSSYGMYWVRQAPGKGLEWVAAIWNDGSNNYYADSVKGRFTISRDDSKNTLNLQMNSLRAEDTAMYYCARDRLPMASLRYFDWLGVMDAWGQGTSVTVSSASTKGPSVFPLAPSSKSTSGGTAALGCLVKDYFPEPVTVSWNSGALTSGVHTFPAVLQSSGLYSLSSVVTVPSSSLGTQTYICNVNHKPSNTKVDKKVEPKSC chain 2: not shown
17 | binds | PR006468-ADC (antibody, V domains shown, mc-vc-PAB-MMAE coupled to Cys1 (first cysteine) of the mouse IgG2c hinge region (90.8% of the site coupled), Purified coupling product of PR006468 with mc-vc-PAB-MMAE, DAR=2 component 95.5%; also called coupling product PR006468-ADC) VH: EVQLVETGGGLIQPGGSLRLSCAASGFTVSDSYMTWVRQAPGKGLEWVSVIFSGGRTYYSDSVKGRFTISRDNAKNTLYLQMNSLRAEDTALYYCARRNYDDTRGTDVFDIWGQGTMVTVSS
18 | binds | PR004433-PROTAC (antibody, human IgG1, V domains shown, BRD4 protein degrading agent (PROTAC GNE-987 with a disulfide-containing linker) coupled by a disulfide bond to cysteine, Cys-220 site (Eu numbering) as the filing aims, Coupling product without HIC purification; DAR=2 component 66.4%, naked antibody 28.4%; also called coupling product PR004433-PROTAC) VH: EVQLVETGGGLIQPGGSLRLSCAASGFTVSDSYMTWVRQAPGKGLEWVSVIFSGGRTYYSDSVKGRFTISRDNAKNTLYLQMNSLRAEDTALYYCARRNYDDTRGTDVFDIWGQGTMVTVSS
19 | binds | PR006040 (antibody, V domains shown, also called PR004433 variant molecule; Hinge6_4) VH: EVQLVETGGGLIQPGGSLRLSCAASGFTVSDSYMTWVRQAPGKGLEWVSVIFSGGRTYYSDSVKGRFTISRDNAKNTLYLQMNSLRAEDTALYYCARRNYDDTRGTDVFDIWGQGTMVTVSS
20 | binds | PR006035 (antibody, V domains shown, also called PR004433 variant molecule; Hinge4_6) VH: EVQLVETGGGLIQPGGSLRLSCAASGFTVSDSYMTWVRQAPGKGLEWVSVIFSGGRTYYSDSVKGRFTISRDNAKNTLYLQMNSLRAEDTALYYCARRNYDDTRGTDVFDIWGQGTMVTVSS
21 | binds | PR006313 (antibody, V domains shown, also called PR004433 variant molecule; Hinge8_8) VH: EVQLVETGGGLIQPGGSLRLSCAASGFTVSDSYMTWVRQAPGKGLEWVSVIFSGGRTYYSDSVKGRFTISRDNAKNTLYLQMNSLRAEDTALYYCARRNYDDTRGTDVFDIWGQGTMVTVSS
22 | binds | PR006039 (antibody, V domains shown, also called PR004433 variant molecule; Hinge5_13) VH: EVQLVETGGGLIQPGGSLRLSCAASGFTVSDSYMTWVRQAPGKGLEWVSVIFSGGRTYYSDSVKGRFTISRDNAKNTLYLQMNSLRAEDTALYYCARRNYDDTRGTDVFDIWGQGTMVTVSS
23 | binds | PR006317 (antibody, V domains shown, also called PR004433 variant molecule; Hinge9_7) VH: EVQLVETGGGLIQPGGSLRLSCAASGFTVSDSYMTWVRQAPGKGLEWVSVIFSGGRTYYSDSVKGRFTISRDNAKNTLYLQMNSLRAEDTALYYCARRNYDDTRGTDVFDIWGQGTMVTVSS
24 | binds | PR006038 (antibody, V domains shown, also called PR004433 variant molecule; Hinge5_12) VH: EVQLVETGGGLIQPGGSLRLSCAASGFTVSDSYMTWVRQAPGKGLEWVSVIFSGGRTYYSDSVKGRFTISRDNAKNTLYLQMNSLRAEDTALYYCARRNYDDTRGTDVFDIWGQGTMVTVSS
25 | binds | PR006034 (antibody, V domains shown, also called PR004433 variant molecule; Hinge4_1) VH: EVQLVETGGGLIQPGGSLRLSCAASGFTVSDSYMTWVRQAPGKGLEWVSVIFSGGRTYYSDSVKGRFTISRDNAKNTLYLQMNSLRAEDTALYYCARRNYDDTRGTDVFDIWGQGTMVTVSS
26 | binds | PR006315 (antibody, V domains shown, also called PR004433 variant molecule; Hinge8_20) VH: EVQLVETGGGLIQPGGSLRLSCAASGFTVSDSYMTWVRQAPGKGLEWVSVIFSGGRTYYSDSVKGRFTISRDNAKNTLYLQMNSLRAEDTALYYCARRNYDDTRGTDVFDIWGQGTMVTVSS
27 | binds | PR006318 (antibody, V domains shown, also called PR004433 variant molecule; Hinge9_14) VH: EVQLVETGGGLIQPGGSLRLSCAASGFTVSDSYMTWVRQAPGKGLEWVSVIFSGGRTYYSDSVKGRFTISRDNAKNTLYLQMNSLRAEDTALYYCARRNYDDTRGTDVFDIWGQGTMVTVSS
28 | binds | PR006320 (antibody, V domains shown, also called PR004433 variant molecule; Hinge10_5) VH: EVQLVETGGGLIQPGGSLRLSCAASGFTVSDSYMTWVRQAPGKGLEWVSVIFSGGRTYYSDSVKGRFTISRDNAKNTLYLQMNSLRAEDTALYYCARRNYDDTRGTDVFDIWGQGTMVTVSS
